Patent US20200283478A1 (Genentech, published 2020)
Read-outs that look alike come from different tables or passages of the source. Bridge positions count the residues as written; N and C are the ends. Square brackets hold non-standard residues; d marks the D form. Ends that are not written are not given here. * marks the point of attachment. 5FAM = O=C1OC2(c3ccc(O)cc3Oc3cc(O)ccc32)c2ccc(C(=O)*)cc21; Ach = 2-aminocyclohexane-1-carboxylic acid; hArg = N=C(N)NCCCC[C@H](N)C(=O)O; Dap = NC[C@H](N)C(=O)O; Pentanoyl = CCCCC(=O)*

B1: Compound 34 (peptide)
peptide: 5FAM-SGSGCRLPWNLQRIGLPC-NH2
modifications: disulfide 5-18 (inferred)
notes: Two Cys, disulfide-cyclized
B2: Compound 82 (peptide)
peptide: Ac-CRL[Ach]WNLQRIGLPC-NH2
modifications: disulfide 1-14 (inferred)
notes: Two Cys, disulfide-cyclized
B3: Compound 53 (peptide)
peptide: Ac-WNLVRIGLLR-NH2
B4: Compound 112 (peptide)
peptide: Pentanoyl-WNLVRIGLTR-NH2
SMILES: CCCCC(=O)N[C@@H](Cc1c[nH]c2ccccc12)C(=O)N[C@@H](CC(N)=O)C(=O)N[C@@H](CC(C)C)C(=O)N[C@H](C(=O)N[C@@H](CCCNC(=N)N)C(=O)N[C@H](C(=O)NCC(=O)N[C@@H](CC(C)C)C(=O)N[C@H](C(=O)N[C@@H](CCCNC(=N)N)C(N)=O)[C@@H](C)O)[C@@H](C)CC)C(C)C
B5: SEQ ID NO 390 (peptide)
peptide: SGGSMPWNLERIFALH
B6: SEQ ID NO 388 (peptide)
peptide: SGACVKPCIAGNIIR
B7: Compound 45 (peptide)
peptide: Ac-ALMPWNLVRIGLLR-NH2
B8: Compound 61 (peptide)
peptide: Ac-DLMPWNAVRIGLLR-NH2
B9: Compound 62 (peptide)
peptide: Ac-DLMPWALVRIGLLR-NH2
B10: Compound 60 (peptide)
peptide: Ac-DLMPWNLARIGLLR-NH2
B11: Compound 55 (peptide)
peptide: Ac-DLMPWNLVRIGLAR-NH2
B12: Compound 51 (peptide)
peptide: Ac-MPWNLVRIGLLR-NH2
B13: Compound 96 (peptide)
peptide: Ac-FCLWNLKRIGAQCWF-NH2
modifications: disulfide 2-13 (inferred)
notes: Two Cys, disulfide-cyclized
B14: Compound 52 (peptide)
peptide: Ac-PWNLVRIGLLR-NH2
B15: Compound 31 (peptide)
peptide: Ac-CFIPWNLQRIGLLC-NH2
modifications: disulfide 1-14 (inferred)
notes: Two Cys, disulfide-cyclized
B16: Compound 97 (peptide)
peptide: Ac-GSGCWNL[Dap]RIGSQGC-NH2
modifications: disulfide 4-15
SMILES: CC[C@H](C)[C@@H]1NC(=O)[C@H](CCCNC(=N)N)NC(=O)[C@H](CN)NC(=O)[C@H](CC(C)C)NC(=O)[C@H](CC(N)=O)NC(=O)[C@H](Cc2c[nH]c3ccccc23)NC(=O)[C@@H](NC(=O)CNC(=O)[C@H](CO)NC(=O)CNC(C)=O)CSSC[C@@H](C(N)=O)NC(=O)CNC(=O)[C@H](CCC(N)=O)NC(=O)[C@H](CO)NC(=O)CNC1=O
notes: Two Cys, disulfide-cyclized; also called Ac-GSG-CWNL(Dpr)RIGSQGC-NH2
B17: Compound 118 (peptide)
peptide: Pentanoyl-WNLV[hArg]IGLTR-NH2
SMILES: CCCCC(=O)N[C@@H](Cc1c[nH]c2ccccc12)C(=O)N[C@@H](CC(N)=O)C(=O)N[C@@H](CC(C)C)C(=O)N[C@H](C(=O)N[C@@H](CCCCNC(=N)N)C(=O)N[C@H](C(=O)NCC(=O)N[C@@H](CC(C)C)C(=O)N[C@H](C(=O)N[C@@H](CCCNC(=N)N)C(N)=O)[C@@H](C)O)[C@@H](C)CC)C(C)C
notes: also called n-BuC(O)-WNLV(homoR)IGLTR-NH2
B18: Compound 48 (peptide)
peptide: Ac-DLMPWNLVRIG-NH2
B19: Compound 47 (peptide)
peptide: Ac-DLMPWNLVRIGL-NH2
B20: Compound 49 (peptide)
peptide: Ac-DLMPWNLVRI-NH2
B21: Compound 119 (peptide)
peptide: Ac-PWNLVRIGL-NH2
B22: Compound 33 (peptide)
peptide: 5FAM-SGSGCFIPWNLQRIGLLC-NH2
modifications: disulfide 5-18 (inferred)
notes: Two Cys, disulfide-cyclized
B23: SEQ ID NO 383 (peptide)
peptide: SGCFIPWNLQRIGLLC
modifications: not fully specified (C-terminus, bridges); cysteine pairing not given here
B24: SEQ ID NO 387 (peptide)
peptide: SGRCLNHLISGNMNSC
B25: Compound 4 (peptide)
peptide: Ac-TVFTSWEEYLDWVGSGKLWNLGR-NH2
B26: Compound 50 (peptide)
peptide: Ac-LMPWNLVRIGLLR-NH2
B27: Compound 111 (peptide)
peptide: Pentanoyl-WNLVRIGLLR-NH2
SMILES: CCCCC(=O)N[C@@H](Cc1c[nH]c2ccccc12)C(=O)N[C@@H](CC(N)=O)C(=O)N[C@@H](CC(C)C)C(=O)N[C@H](C(=O)N[C@@H](CCCNC(=N)N)C(=O)N[C@H](C(=O)NCC(=O)N[C@@H](CC(C)C)C(=O)N[C@@H](CC(C)C)C(=O)N[C@@H](CCCNC(=N)N)C(N)=O)[C@@H](C)CC)C(C)C
B28: Compound 32 (peptide)
peptide: Ac-CRLPWNLQRIGLPC-NH2
modifications: disulfide 1-14 (inferred)
notes: Two Cys, disulfide-cyclized
B29: Compound 73 (peptide)
peptide: Ac-CRLPWNLARIGLPC-NH2
modifications: disulfide 1-14 (inferred)
notes: Two Cys, disulfide-cyclized
B30: Compound 1 (peptide)
peptide: Ac-TVFTSWEEYLDWVGSGKLWNLGRV-NH2
B31: Compound 46 (peptide)
peptide: Ac-DLMPWNLVRIGLL-NH2
B32: SEQ ID NO 391 (peptide)
peptide: SGCSDLWNLARIYPMC
B33: SEQ ID NO 389 (peptide)
peptide: SGDLMPWNLVRIGLLR
B34: Compound 120 (peptide)
peptide: Ac-WNLVRIGL-NH2
B35: SEQ ID NO 385 (peptide)
peptide: SGDFIPWNLVRIGLLR
B36: SEQ ID NO 384 (peptide)
peptide: SGGACPWNLERIGLSC

Tests used:
[1] = target: T1, PCSK9 (proprotein convertase subtilisin/kexin type 9), His-tagged, full-length (human, UniProt Q8NBP7 31-692); assay: SPR, Method 3 (SensiQ Pioneer FE, target amine-coupled, gradient injection)
T1 construct: Captured by the His tag (SPR Methods 1 and 2), amine-coupled (Method 3), or His-tagged in TR-FRET; also called His-PCSK9
T1 sequence (Q8NBP7 31-692 limits assumed): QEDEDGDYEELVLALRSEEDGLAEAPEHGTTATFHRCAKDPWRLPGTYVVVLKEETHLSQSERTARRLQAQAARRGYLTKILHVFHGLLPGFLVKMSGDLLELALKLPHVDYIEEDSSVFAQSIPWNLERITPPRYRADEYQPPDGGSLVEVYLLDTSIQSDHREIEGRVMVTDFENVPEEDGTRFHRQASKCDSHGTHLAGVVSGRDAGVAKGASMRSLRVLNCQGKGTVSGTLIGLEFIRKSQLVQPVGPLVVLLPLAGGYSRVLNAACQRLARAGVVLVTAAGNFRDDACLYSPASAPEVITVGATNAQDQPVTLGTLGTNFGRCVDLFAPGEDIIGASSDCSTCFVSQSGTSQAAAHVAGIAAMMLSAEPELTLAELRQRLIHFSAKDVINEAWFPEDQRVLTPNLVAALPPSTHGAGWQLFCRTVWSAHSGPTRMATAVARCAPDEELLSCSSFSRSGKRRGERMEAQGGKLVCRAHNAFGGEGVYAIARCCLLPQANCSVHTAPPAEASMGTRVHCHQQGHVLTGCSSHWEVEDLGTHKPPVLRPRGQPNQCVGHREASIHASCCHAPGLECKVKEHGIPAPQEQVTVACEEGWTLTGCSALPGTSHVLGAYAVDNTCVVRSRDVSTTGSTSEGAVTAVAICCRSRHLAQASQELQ

PCSK9Δhelix [2] = target: T2, PCSK9Δhelix (human, UniProt Q8NBP7 31-152; Q8NBP7 168-692); assay: as above
T2 construct: Made by TEV cleavage of human PCSK9 M1-Q692 with an engineered TEV site; The new N-terminus of the catalytic domain is S-A168; also called His-PCSK9Δhelix; PCSK9 lacking the P' helix
T2 sequence (Q8NBP7 31-152, stated change not applied, chain 1 of 2): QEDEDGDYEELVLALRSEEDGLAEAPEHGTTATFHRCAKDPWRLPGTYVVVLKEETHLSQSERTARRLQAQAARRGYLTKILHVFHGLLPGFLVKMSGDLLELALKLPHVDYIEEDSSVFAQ
T2 sequence (Q8NBP7 other isoform, or with tags, fused parts or gaps mutant, chain 2 of 2): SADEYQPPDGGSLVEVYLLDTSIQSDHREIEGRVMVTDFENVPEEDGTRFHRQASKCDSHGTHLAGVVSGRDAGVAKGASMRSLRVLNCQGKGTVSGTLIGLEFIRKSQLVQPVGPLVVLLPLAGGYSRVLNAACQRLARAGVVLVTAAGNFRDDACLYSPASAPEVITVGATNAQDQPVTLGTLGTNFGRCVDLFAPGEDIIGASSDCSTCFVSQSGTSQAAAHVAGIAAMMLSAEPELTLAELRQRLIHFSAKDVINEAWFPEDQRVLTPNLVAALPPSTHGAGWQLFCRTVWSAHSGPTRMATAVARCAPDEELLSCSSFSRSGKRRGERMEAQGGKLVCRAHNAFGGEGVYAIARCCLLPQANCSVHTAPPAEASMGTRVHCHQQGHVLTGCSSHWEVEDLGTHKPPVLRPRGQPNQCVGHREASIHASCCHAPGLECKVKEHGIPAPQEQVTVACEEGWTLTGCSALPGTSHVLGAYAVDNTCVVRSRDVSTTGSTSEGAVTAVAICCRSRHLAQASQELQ

[3] = target: T1, PCSK9 (proprotein convertase …); assay: TR-FRET competition; competitor EGF(A)-Fc binding to His-PCSK9
PCSK9Δhelix [4] = target: T2, PCSK9Δhelix; assay: TR-FRET competition; competitor Ab20 binding to His-PCSK9Δhelix
[5] = target: T3, proprotein convertase subtilisin/kexin type 9 (PCSK9) (human, UniProt Q8NBP7 31-692); assay: phage spot ELISA
T3 construct: His-tagged full-length PCSK9 in TR-FRET and SPR, biotinylated in phage ELISA; secreted protein is autoprocessed (prodomain plus catalytic/CRD chain starting at S153); also called rec.PCSK9; His-PCSK9
T3 sequence (Q8NBP7 other isoform, or with tags, fused parts or gaps limits assumed): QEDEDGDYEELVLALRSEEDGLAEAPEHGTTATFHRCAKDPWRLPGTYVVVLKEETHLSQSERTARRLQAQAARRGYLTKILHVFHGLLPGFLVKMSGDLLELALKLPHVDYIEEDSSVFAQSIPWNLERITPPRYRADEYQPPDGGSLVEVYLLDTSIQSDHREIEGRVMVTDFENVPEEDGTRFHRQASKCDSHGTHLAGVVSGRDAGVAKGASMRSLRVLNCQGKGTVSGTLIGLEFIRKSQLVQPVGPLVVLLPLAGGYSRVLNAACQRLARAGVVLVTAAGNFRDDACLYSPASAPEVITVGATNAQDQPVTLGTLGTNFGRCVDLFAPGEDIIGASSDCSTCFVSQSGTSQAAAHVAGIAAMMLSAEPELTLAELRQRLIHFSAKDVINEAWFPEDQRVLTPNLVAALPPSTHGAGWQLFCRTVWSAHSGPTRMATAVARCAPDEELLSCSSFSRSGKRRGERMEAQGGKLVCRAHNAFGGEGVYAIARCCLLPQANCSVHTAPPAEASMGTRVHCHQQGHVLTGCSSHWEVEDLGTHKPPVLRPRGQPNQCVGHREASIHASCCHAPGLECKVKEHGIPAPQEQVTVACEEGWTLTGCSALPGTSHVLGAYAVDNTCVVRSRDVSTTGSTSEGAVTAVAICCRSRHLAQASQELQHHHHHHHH

PCSK9Δhelix [6] = target: T4, PCSK9Δhelix (human, Chemically biotinylated in the phage ELISAs; the site is not given.); assay: phage spot ELISA
T4 construct: construct M1-Q692 with engineered TEV site, cleaved by TEV; also called His-PCSK9Δhelix; open groove PCSK9Δhelix
T4 sequence (prodomain, as listed by the source mutant limits assumed, chain 1 of 2): as the sequence (Q8NBP7 31-152, stated change not applied, chain 1 of 2) above
T4 sequence (chain, as listed by the source mutant limits assumed, chain 2 of 2): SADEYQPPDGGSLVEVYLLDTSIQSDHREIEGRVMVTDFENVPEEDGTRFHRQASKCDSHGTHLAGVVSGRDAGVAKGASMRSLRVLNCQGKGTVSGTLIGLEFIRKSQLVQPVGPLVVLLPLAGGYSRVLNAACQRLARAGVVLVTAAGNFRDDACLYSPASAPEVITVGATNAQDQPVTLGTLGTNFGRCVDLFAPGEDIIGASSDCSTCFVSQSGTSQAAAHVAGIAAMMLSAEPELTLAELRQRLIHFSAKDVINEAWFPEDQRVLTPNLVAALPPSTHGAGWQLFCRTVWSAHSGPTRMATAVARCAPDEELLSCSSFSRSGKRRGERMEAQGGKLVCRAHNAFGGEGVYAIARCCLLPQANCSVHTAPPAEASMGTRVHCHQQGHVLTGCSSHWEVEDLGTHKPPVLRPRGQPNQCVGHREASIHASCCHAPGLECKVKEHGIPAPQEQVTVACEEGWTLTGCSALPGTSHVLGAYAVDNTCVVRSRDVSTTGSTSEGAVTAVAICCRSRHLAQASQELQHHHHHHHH

PCSK9Δhelix [7] = target: T2, PCSK9Δhelix; assay: TR-FRET competition; competitor Ab20 binding to His-PCSK9Δhelix; remark: listed apart in the source
[8] = target: T1, PCSK9 (proprotein convertase …); assay: TR-FRET competition; competitor EGF(A)-Fc binding to His-PCSK9; remark: listed apart in the source

| Kd [1] | Kd (PCSK9Δhelix [2]) | IC50 [3] | IC50 (PCSK9Δhelix [4]) | further results | Binder |
| --- | --- | --- | --- | --- | --- |
| 4.47 µM | 5.28 µM |  |  |  | B1 |
| 118 µM | 6.4 µM |  |  |  | B2 |
| 223 µM | 33.8 µM | > 50 µM | 33.1 µM |  | B3 |
|  |  | > 50 µM | 7.5 µM |  | B4 |
|  |  |  |  | ELISA [5]: 2.74; s/n ratio [5]: 15.8; ELISA (PCSK9Δhelix [6]): 3.19; s/n ratio (PCSK9Δhelix [6]): 21.3 | B5 |
|  |  |  |  | ELISA [5]: 1.25; s/n ratio [5]: 9.44; ELISA (PCSK9Δhelix [6]): 2.09; s/n ratio (PCSK9Δhelix [6]): 18.2 | B6 |
| 117 µM | 8.2 µM | > 50 µM | 2.02 µM |  | B7 |
|  |  | > 50 µM | 49.5 µM |  | B8 |
|  |  | > 50 µM | 49.5 µM |  | B9 |
|  |  | > 50 µM | 19.2 µM |  | B10 |
| 96.5 µM | 2.8 µM | > 50 µM | 9.7 µM |  | B11 |
| 26.2 µM | 2.7 µM | > 50 µM | 4.69 µM |  | B12 |
| 46.4 µM | 2.5 µM |  |  |  | B13 |
| 17.9 µM | 2.6 µM | > 50 µM | 10.2 µM |  | B14 |
| 5.83 µM | 3.01 µM |  |  |  | B15 |
| 522 µM | 89.2 µM |  |  |  | B16 |
|  |  | > 50 µM | 1.4 µM |  | B17 |
|  |  | > 50 µM | 49.5 µM |  | B18 |

| Kd [1] | Kd (PCSK9Δhelix [2]) | IC50 [3] | IC50 (PCSK9Δhelix [4]) | further results | Binder |
| --- | --- | --- | --- | --- | --- |
|  |  | > 50 µM | 12.6 µM |  | B19 |
|  |  | > 50 µM | 49.5 µM |  | B20 |
|  |  | > 50 µM | 49.5 µM |  | B21 |
| 6.01 µM | 10 µM |  |  |  | B22 |
|  |  |  |  | ELISA [5]: 3; s/n ratio [5]: 8.11; ELISA (PCSK9Δhelix [6]): 3.07; s/n ratio (PCSK9Δhelix [6]): 8.48 | B23 |
|  |  |  |  | ELISA [5]: 2.62; s/n ratio [5]: 17.5; ELISA (PCSK9Δhelix [6]): 2.88; s/n ratio (PCSK9Δhelix [6]): 20.7 | B24 |
|  |  |  |  | IC50 (PCSK9Δhelix [7]): 1.52 µM; IC50 [8]: 0.49 µM | B25 |
| 16.1 µM | 1.6 µM | > 50 µM | 2.66 µM |  | B26 |
|  |  | > 50 µM | 4.9 µM |  | B27 |
| 1.3 µM | 0.21 µM |  |  |  | B28 |
| 11 µM | 0.167 µM |  |  |  | B29 |
|  |  |  |  | IC50 (PCSK9Δhelix [7]): 0.021 µM; IC50 [8]: 0.388 µM | B30 |
|  |  | > 50 µM | 14 µM |  | B31 |
|  |  |  |  | ELISA [5]: 0.514; s/n ratio [5]: 3.59; ELISA (PCSK9Δhelix [6]): 2.21; s/n ratio (PCSK9Δhelix [6]): 15.1 | B32 |
|  |  |  |  | ELISA [5]: 3.16; s/n ratio [5]: 16.5; ELISA (PCSK9Δhelix [6]): 3.23; s/n ratio (PCSK9Δhelix [6]): 14.7 | B33 |
|  |  | > 50 µM | 49.5 µM |  | B34 |
|  |  |  |  | ELISA [5]: 0.472; s/n ratio [5]: 3.42 | B35 |
|  |  |  |  | ELISA [5]: 1.42; s/n ratio [5]: 9.77; ELISA (PCSK9Δhelix [6]): 1.94; s/n ratio (PCSK9Δhelix [6]): 12.3 | B36 |
